For one series, the system named is ZFN 12257 (synthetic). Nature of the series: cell_activity. To be noted: K562, pair with 12329 (pairing inferred from adjacent sites), Surveyor assay.
The subject of another series is ZFN 12270 (synthetic). Nature of the series: cell_activity. The conditions noted are these: K562, pair with 12273, Surveyor assay; 34.6% in enriched SupT1 pool, >40% in primary CD4 T cells.
Series [1] deals with HLA Class I. The series can be described thus: flow cytometry on parental SupT1 cells, PE anti-mouse IgG secondary. A general note: Flow cytometry measures light scatter and fluorescence of single cells or particles in a stream.
Series [2] deals with HLA Class I. The series can be described thus: flow cytometry on SupT1 clone B13, PE anti-mouse IgG secondary.
The target of series [3] is HLA Class I. The series can be described thus: flow cytometry on SupT1 clone B4, PE anti-mouse IgG secondary.
Series [4] deals with HLA Class I. Nature of the series: flow cytometry on SupT1 clone A66, PE anti-mouse IgG secondary.
The test system of a further series is ZFN 12281 (synthetic). The series can be described thus: cell_activity. To be noted: K562, pair with 12290 (pairing inferred from adjacent sites), Surveyor assay.
The next series relates to ZFN 12290 (synthetic). Nature of the series: cell_activity. To be noted: K562, pair with 12281 (pairing inferred from adjacent sites), Surveyor assay.
The subject of a further series is ZFN 12273 (synthetic). The series can be described thus: cell_activity. The conditions noted are these: K562, pair with 12270, Surveyor assay; 34.6% in enriched SupT1 pool, >40% in primary CD4 T cells.
A further series relates to ZFN 12329 (synthetic). Nature of the series: cell_activity. The conditions noted are these: K562, pair with 12257 (pairing inferred from adjacent sites), Surveyor assay.
The target of series [5] is CXCR4 isoform b, WT (352 a.a.) (human) (UniProt P61073). Nature of the series: flow cytometry on parental SupT1 cells, PE anti-mouse IgG secondary.
Chain of UniProt P61073 (P61073 whole entry, canonical isoform): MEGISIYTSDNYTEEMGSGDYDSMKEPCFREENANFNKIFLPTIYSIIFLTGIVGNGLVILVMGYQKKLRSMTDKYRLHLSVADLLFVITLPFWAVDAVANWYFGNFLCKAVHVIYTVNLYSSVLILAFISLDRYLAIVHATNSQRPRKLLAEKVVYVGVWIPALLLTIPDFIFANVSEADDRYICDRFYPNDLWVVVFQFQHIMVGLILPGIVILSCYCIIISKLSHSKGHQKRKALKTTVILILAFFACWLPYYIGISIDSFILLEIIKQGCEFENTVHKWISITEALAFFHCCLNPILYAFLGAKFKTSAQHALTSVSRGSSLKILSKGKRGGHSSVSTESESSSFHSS

Turning to “AGTCAGAGGCCAAGGAAGCTGTTGGCTG (double strand) [CXCR4 12257 target]”, in the series with ZFN 12257 (synthetic), the activity was more than 20 % NHEJ. In turn, “ATGACTTGTGGGTGGTTGTGTTCCAGTT (double strand) [CXCR4 12270 target]” returned an activity in the series on ZFN 12270 (synthetic) of more than 20 % NHEJ. Take Anti-HLA Cl-I W6/32 (antibody): the Mean Channel Fluorescence stood at 83 with HLA Class I [1], 170 in the series with HLA Class I [2], 152 in the series with HLA Class I [3] and 189 with HLA Class I [4]. “CAGTTGATGCCGTGGCAAACTGGTACTT (double strand) [CXCR4 12281 target]”: the activity in the series on ZFN 12281 (synthetic) was more than 20 % NHEJ. “CCAGAAGGGAAGCGTGATGACAAAGAGG (double strand) [CXCR4 12290 target]” gave an activity with ZFN 12290 (synthetic) of more than 20 % NHEJ. For the substance “GGGTAGAAGCGGTCACAGATATATCTGT (double strand) [CXCR4 12273 target]”, the activity in the series with ZFN 12273 (synthetic) was more than 20 % NHEJ.

With “TTGGTGGCGTGGACGATGGCCAGGTAGC (double strand) [CXCR4 12329 target]”, the activity in the series with ZFN 12329 (synthetic) was more than 20 % NHEJ. On to anti-CXCR4 NT (4G10) (antibody), for which the Mean Channel Fluorescence in [5] was found to be 136.

With anti-CXCR4 mAb (12G5) (antibody), the Mean Channel Fluorescence in series [5] is 35.

The values above are taken from patent publication US20100291048A1.
